Drawing on paper PMC6242907, “Molecular basis of maintaining an oxidizing environment under anaerobiosis by soluble fumarate reductase” (Nature Communications, 2018), this text covers Kd for two molecules.

Test [1] addresses T1, Osm1 (residues 32-501), 6x His-tagged (S. cerevisiae, UniProt P21375 32-501).
T1 construct: Osm1, soluble fumarate reductase of S. cerevisiae, amino acids 32-501, cloned in pET28a (NheI/XhoI); no removal of the tag is described except by trypsin for crystallisation; A31 is an extra residue from the cloning construct; The limits of the pET28a Osm1 used in the pull-down are not repeated in the methods; also called holo-Osm1; WT Osm1; source: also in lysate of BL21(DE3) co-expressing …
Description: SPR; Biacore T-200, CM5 chip; MBP-Ero1 immobilised by amine coupling (1500 RU); Osm1 or chimeric Osm1 injected in PBS at 6.25 to 200 µM, 30 µL/min, 25 °C; affinity (steady-state) fitting. Conditions: both partners purified. On the technique in general: In SPR one partner is held on a chip, and binding of the other changes the refractive index at the surface.

Test [2] has as its target T1, Osm1 (residues 32-501), 6x His-tagged. Description: ITC; nano-ITC; 2.5 µL injections of 1.6 mM Osm1 into 40 µM Ero1 in PBS. Particulars: both partners purified.

T1 sequence (P21375 32-501): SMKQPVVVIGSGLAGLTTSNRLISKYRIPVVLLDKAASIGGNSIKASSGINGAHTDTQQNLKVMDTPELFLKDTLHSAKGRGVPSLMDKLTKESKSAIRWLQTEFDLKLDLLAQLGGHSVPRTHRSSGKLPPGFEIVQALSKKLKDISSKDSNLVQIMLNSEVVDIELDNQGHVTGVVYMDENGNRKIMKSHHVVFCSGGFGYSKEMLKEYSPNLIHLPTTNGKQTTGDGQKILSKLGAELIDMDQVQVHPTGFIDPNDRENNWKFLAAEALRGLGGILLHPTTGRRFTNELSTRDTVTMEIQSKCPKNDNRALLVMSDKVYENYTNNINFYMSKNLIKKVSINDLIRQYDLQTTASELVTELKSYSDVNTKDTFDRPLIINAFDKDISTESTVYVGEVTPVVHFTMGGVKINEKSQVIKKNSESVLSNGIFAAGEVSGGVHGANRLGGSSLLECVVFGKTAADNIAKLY

B1: His6-maltose-binding protein (H6-MBP)-fused Ero1 (56-424) (enzyme, yeast, UniProt Q03103 56-424, looked up)
chain: FNELNAINENIRDDLSALLKSDFFKYFRLDLYKQCSFWDANDGLCLNRACSVDVVEDWDTLPEYWQPEILGSFNNDTMKEADDSDDECKFLDQLCQTSKKPVDIEDTINYCDVNDFNGKNAVLIDLTANPERFTGYGGKQAGQIWSTIYQDNCFTIGETGESLAKDAFYRLVSGFHASIGTHLSKEYLNTKTGKWEPNLDLFMARIGNFPDRVTNMYFNYAVVAKALWKIQPYLPEFSFCDLVNKEIKNKMDNVISQLDTKIFNEDLVFANDLSLTLKDEFRSRFKNVTKIMDCVQCDRCRLWGKIQTTGYATALKILFEINDADEFTKQHIVGKLTKYELIALLQTFGRLSESIESVNMFEKMYGKRL
notes: Ero1, ER-resident flavoenzyme of yeast, residues 56-424; FAD cofactor; Uncleaved fusion (83 kDa) immobilised on the CM5 chip; a TEV site lies between H6-MBP and Ero1; The only purified MBP-Ero1 described in the methods is the H6-MBP fusion; also called MBP-Ero1; purified MBP-Ero1; source: E. coli Origami B(DE3), purified (HiTrap Ni2+, amylose)
The Kd is the constant that tells how readily two partners part at equilibrium. Higher therefore signals a looser complex. On to B1, for which the Kd in test [1] was ~200 µM.

B2: Ero1 (56-424), H6-MBP cleaved off (enzyme, yeast, UniProt Q03103 56-424, looked up)
chain: FNELNAINENIRDDLSALLKSDFFKYFRLDLYKQCSFWDANDGLCLNRACSVDVVEDWDTLPEYWQPEILGSFNNDTMKEADDSDDECKFLDQLCQTSKKPVDIEDTINYCDVNDFNGKNAVLIDLTANPERFTGYGGKQAGQIWSTIYQDNCFTIGETGESLAKDAFYRLVSGFHASIGTHLSKEYLNTKTGKWEPNLDLFMARIGNFPDRVTNMYFNYAVVAKALWKIQPYLPEFSFCDLVNKEIKNKMDNVISQLDTKIFNEDLVFANDLSLTLKDEFRSRFKNVTKIMDCVQCDRCRLWGKIQTTGYATALKILFEINDADEFTKQHIVGKLTKYELIALLQTFGRLSESIESVNMFEKMYGKRL
notes: Ero1, ER-resident flavoenzyme of yeast, residues 56-424; FAD cofactor; The ITC methods name only 'Ero1'; also called recombinant Ero1; source: E. coli Origami B(DE3), purified (HiTrap Ni2+, amylose, TEV cleavage, Ni2+ flow-through)
As to B2, the dissociation constant Kd in test [2] was ~150 µM.
